Results published in patent publication US20140220017A1 (published 2014).

How the values were obtained:
human IgG [1] = molecular target: human IgG (human); assay: QCM; pH 7.4
human IgG Fc [2] = molecular target: human IgG Fc (human); assay: QCM; pH 7.4
mouse IgG Fc = mouse IgG Fc (mouse); assay: QCM; pH 7.4
human IgG Fab [3] = molecular target: human IgG Fab (human); assay: QCM; pH 7.4
mouse IgG [4] = molecular target: mouse IgG (mouse); assay: QCM; pH 7.4
mouse IgG Fab [5] = molecular target: mouse IgG Fab (mouse); assay: QCM; pH 7.4
human IgG [6] = molecular target: human IgG (human); assay: QCM; pH 6
human IgG Fc [7] = molecular target: human IgG Fc (human); assay: QCM; pH 6
human IgG Fab [8] = molecular target: human IgG Fab (human); assay: QCM; pH 6
mouse IgG [9] = molecular target: mouse IgG (mouse); assay: QCM; pH 6
mouse IgG Fab [10] = molecular target: mouse IgG Fab (mouse); assay: QCM; pH 6

B1: SpGC3 (other)
chain: DAAQPAMAQVKLQQSGAELVRSGTSVKLSCTASGFNIKDSYMHWLRQGPEQGLEWIGWIDPENGDTEYAPKFQGKATFTTDTSSNTAYLQLSSLTSEDTAVYYCNEGTPTGPYYFDYWGQGTTVTVSSGGGGSDIQMTQSPSSLSASVGDRVTITCRASQDIRNYLNWYQQKPGKAPKLLIYYTSRLESGVPSRFSGSGSGTDYTLTISSLQPEDFATYYCQQGNTLPWTFGQGTKVEIKRGGGGSGGRASGGGGSEVQLVESGGGLVQPGGSLRLSCAASGYSFTGYTMNWVRQAPGKGLEWVALINPYKGVSTYNQKFKDRFTISVDKSKNTAYLQMNSLRAEDTAVYYCARSGYYGDSDWYFDVWGQGTLVTVSSGGGGSDIELTQSPAIMSASPGEKVTITCSASSSVSYMHWFQQKPGTSPKLWIYSTSNLASGVPARFSGSGSGTSYSLTISRMEAEDAATYYCQQRSSYPLTFGAGTKLELKRAAAGGSGGTTYKLVINGKTLKGETTTKAVDAETAEKAFKQYANDNGVDGVWTYDDATKTFTVTEGGSHHHHHH
B1 was tested. Which Kd (human IgG [1]) did it give?
Its Kd is 6 nM.

What about the Kd (human IgG Fc [2]) of the same binder?
Its Kd is 10 nM.

And the Kd (mouse IgG Fc)?
The Kd was 24 nM.

What about the Kd (human IgG Fab [3]) of the same binder?
Its Kd is 190 nM.

What about the Kd (mouse IgG [4]) of the same binder?
Its Kd is 58 nM.

And the Kd (mouse IgG Fab [5])?
Its Kd is 190 nM.

What about the Kd (human IgG [6]) of the same binder?
Its Kd is 5 nM.

What about the Kd (human IgG Fc [7]) of the same binder?
The Kd was 3.6 nM.

What about the Kd (human IgG Fab [8]) of the same binder?
Its Kd is 150 nM.

What about the Kd (mouse IgG [9]) of the same binder?
The Kd was 46 nM.

And the Kd (mouse IgG Fab [10])?
The Kd was 190 nM.
